{
  "source": "IntAct's records for PubMed 24255178",
  "parents": {"B1": {"name": "Serine/threonine-protein kinase 3 (Homo sapiens), Q13188 (parent)", "chain": "MEQPPAPKSKLKKLSEDSLTKQPEEVFDVLEKLGEGSYGSVFKAIHKESGQVVAIKQVPVESDLQEIIKEISIMQQCDSPYVVKYYGSYFKNTDLWIVMEYCGAGSVSDIIRLRNKTLIEDEIATILKSTLKGLEYLHFMRKIHRDIKAGNILLNTEGHAKLADFGVAGQLTDTMAKRNTVIGTPFWMAPEVIQEIGYNCVADIWSLGITSIEMAEGKPPYADIHPMRAIFMIPTNPPPTFRKPELWSDDFTDFVKKCLVKNPEQRATATQLLQHPFIKNAKPVSILRDLITEAMEIKAKRHEEQQRELEEEEENSDEDELDSHTMVKTSVESVGTMRATSTMSEGAQTMIEHNSTMLESDLGTMVINSEDEEEEDGTMKRNATSPQVQRPSFMDYFDKQDFKNKSHENCNQNMHEPFPMSKNVFPDNWKVPQDGDFDFLKNLSLEELQMRLKALDPMMEREIEELRQRYTAKRQPILDAMDAKKRRQQNF", "partner": "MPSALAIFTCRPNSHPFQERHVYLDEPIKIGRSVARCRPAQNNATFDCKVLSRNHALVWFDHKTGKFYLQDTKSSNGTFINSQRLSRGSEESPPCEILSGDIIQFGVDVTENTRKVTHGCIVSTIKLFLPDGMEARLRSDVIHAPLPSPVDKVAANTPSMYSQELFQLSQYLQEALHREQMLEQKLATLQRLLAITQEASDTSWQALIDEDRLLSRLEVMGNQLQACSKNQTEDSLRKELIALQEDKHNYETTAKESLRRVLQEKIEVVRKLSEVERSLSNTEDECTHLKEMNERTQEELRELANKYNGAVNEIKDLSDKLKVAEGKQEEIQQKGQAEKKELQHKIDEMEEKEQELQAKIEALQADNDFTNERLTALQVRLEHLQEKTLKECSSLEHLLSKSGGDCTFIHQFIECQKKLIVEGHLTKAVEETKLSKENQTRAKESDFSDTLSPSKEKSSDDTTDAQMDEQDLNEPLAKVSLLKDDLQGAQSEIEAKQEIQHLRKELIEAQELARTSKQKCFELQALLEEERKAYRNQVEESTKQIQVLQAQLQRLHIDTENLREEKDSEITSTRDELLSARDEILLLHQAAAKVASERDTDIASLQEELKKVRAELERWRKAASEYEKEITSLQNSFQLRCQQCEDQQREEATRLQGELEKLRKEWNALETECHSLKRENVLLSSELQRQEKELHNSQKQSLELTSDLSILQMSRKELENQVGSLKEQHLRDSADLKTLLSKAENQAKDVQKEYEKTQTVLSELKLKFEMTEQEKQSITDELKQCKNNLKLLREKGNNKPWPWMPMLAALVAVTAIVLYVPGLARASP"}, "B2": {"name": "Sarcolemmal membrane-associated protein (Homo sapiens), Q14BN4 (parent)", "chain": "B1 partner", "partner": "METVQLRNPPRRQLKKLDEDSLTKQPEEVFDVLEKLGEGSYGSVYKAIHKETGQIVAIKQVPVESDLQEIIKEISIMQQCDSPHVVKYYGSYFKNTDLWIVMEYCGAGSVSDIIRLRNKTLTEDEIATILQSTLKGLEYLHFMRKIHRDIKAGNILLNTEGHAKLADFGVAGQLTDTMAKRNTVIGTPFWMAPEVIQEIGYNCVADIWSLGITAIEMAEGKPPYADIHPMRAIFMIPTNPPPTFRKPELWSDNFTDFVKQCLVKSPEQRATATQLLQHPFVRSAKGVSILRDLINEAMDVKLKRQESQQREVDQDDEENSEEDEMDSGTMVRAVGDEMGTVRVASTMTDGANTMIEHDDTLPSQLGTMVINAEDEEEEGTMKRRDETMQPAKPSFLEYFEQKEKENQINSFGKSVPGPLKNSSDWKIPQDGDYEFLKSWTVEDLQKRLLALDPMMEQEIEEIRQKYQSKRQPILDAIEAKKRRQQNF"}, "B3": {"name": "Sarcolemmal membrane-associated protein (Homo sapiens), Q14BN4 (parent)", "chain": "B1 partner", "partner": "B1 chain"}},
  "data": [
    {"variants_of": "B1", "settings": "with slmap_human SLMAP, Q14BN4", "values": [
      {"variant": "T180A", "effect of a mutation on the interaction": "decreasing interaction"}
    ]},
    {"variants_of": "B2", "settings": "with stk4_human STK4, Q13043", "values": [
      {"variant": "H55A", "effect of a mutation on the interaction": "decreasing interaction"},
      {"variant": "R32A", "effect of a mutation on the interaction": "decreasing interaction"}
    ]},
    {"variants_of": "B3", "settings": "with stk3_human STK3, Q13188", "values": [
      {"variant": "R32A", "effect of a mutation on the interaction": "decreasing interaction"},
      {"variant": "H55A", "effect of a mutation on the interaction": "decreasing interaction"}
    ]}
  ]
}
